In the supplement of paper PMC10567573:

B1: PTPN9 (parent)
chain: ILFSLPPALDWDSVHVPGPHAMTI
B2: ZNF207 (parent)
chain: FQPQPVQPQQGYIPPMAQPGLPPV

Variants of: B1
Experiment: protein stability index of a GFP-peptide fusion (GPS, HEK-293T) (PSI 1-6); higher = more stable
Details: c terminus: a fixed tail appended
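Note: lentivirally expressed fusions sorted by FACS into six bins by GFP to DsRed ratio, PSI derived from sequencing read proportions per bin multiplied by bin number.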

Row | Variant | protein stability index
1 | A21G | 2.96
2 | A21C | 3.09
3 | A21D | 2.71
4 | A21E | 2.64
5 | A21Q | 2.63
6 | A21I | 3.19
7 | A21P | 2.84
8 | A21Y | 3.24
9 | A21L | 2.86
10 | A21R | 1.86
11 | A21S | 3.61
12 | A21V | 4.21
13 | A21W | 1.23
14 | A21K | 3.13
15 | A21N | 1.75
16 | A21M | 2.59
17 | A21H | 2.88
18 | A21T | 2.35
19 | G18H | 2.69
20 | G18D | 1.85
21 | G18A | 3.84
22 | G18Q | 3.62
23 | G18I | 3.29
24 | G18L | 4.77

Row | Variant | protein stability index
25 | G18E | 2.12
26 | G18C | 1.85
27 | G18N | 2.76
28 | G18M | 2.48
29 | G18S | 2.4
30 | G18R | 2.19
31 | G18K | 1.61
32 | G18V | 2.36
33 | G18W | 3.41
34 | P19R | 2.65
35 | P19M | 2.77
36 | P19K | 2.02
37 | P19E | 2.35
38 | P19W | 2.19
39 | P19Y | 3.1
40 | P19T | 1.89
41 | P19D | 2.1
42 | P19S | 2.48
43 | P19Q | 2.55
44 | P19A | 2.77
45 | P19V | 3.51
46 | P19L | 2.44
47 | P19I | 2.37
48 | P19G | 2.97

Row | Variant | protein stability index
49 | P19H | 2.46
50 | P19N | 2.89
51 | P19C | 2.95
52 | P19F | 3.89
53 | T23W | 2.7
54 | T23V | 4.05
55 | T23A | 1.49
56 | T23Q | 2.73
57 | T23R | 3.03
58 | T23D | 2.6
59 | T23E | 2.33
60 | T23H | 1.88
61 | T23M | 4.43
62 | T23I | 2.96
63 | T23F | 2.25
64 | T23C | 3.21
65 | T23P | 1.2
66 | T23G | 3.89
67 | T23N | 3.27
68 | T23S | 2.4
69 | T23L | 1.76
70 | T23Y | 2.69
71 | T23K | 2.87
72 | M22R | 1.86

Row | Variant | protein stability index
73 | M22G | 1.67
74 | M22H | 1.24
75 | M22D | 1.91
76 | M22L | 2.77
77 | M22T | 1.75
78 | M22I | 2.93
79 | M22K | 1.39
80 | M22P | 1.77
81 | M22F | 1.73
82 | M22W | 3.35
83 | M22S | 1.82
84 | M22A | 2.35
85 | M22N | 1.39
86 | M22V | 2.64
87 | M22Q | 2.04
88 | M22E | 2.55
89 | P17N | 2.71
90 | P17W | 4.48
91 | P17Q | 2.94
92 | P17C | 1.49
93 | P17E | 2.47
94 | P17M | 3.11
95 | P17D | 2.21
96 | P17L | 2.79

Row | Variant | protein stability index
97 | P17A | 2.78
98 | P17S | 2.82
99 | P17T | 2.02
100 | P17H | 1.42
101 | P17I | 2.67
102 | P17G | 1.94
103 | P17K | 2.49
104 | P17R | 2.87
105 | P17F | 3.17
106 | H20E | 1.59
107 | H20C | 2.58
108 | H20R | 2.12
109 | H20Y | 3.11
110 | H20F | 3.16
111 | H20M | 2.88
112 | H20P | 1.82
113 | H20G | 2.69
114 | H20Q | 2.31
115 | H20D | 2.29
116 | H20A | 2.01
117 | H20S | 2.48
118 | H20N | 2.59
119 | H20L | 2.79
120 | H20I | 2.93

Row | Variant | protein stability index
121 | H20K | 2.76
122 | H20T | 2.16
123 | I24H | 1.63
124 | I24S | 1.57
125 | I24P | 1.85
126 | I24Y | 1.73
127 | I24D | 1.83
128 | I24V | 2.31
129 | I24T | 1.97
130 | I24W | 3.21
131 | I24F | 3.71
132 | I24R | 1.71
133 | I24K | 2.06
134 | I24N | 1.71
135 | I24E | 1.69
136 | I24C | 2.43
137 | I24A | 1.55
138 | I24L | 1.99
139 | I24M | 2.69
140 | I24G | 2.29
141 | I24Q | 2.71
142 | V16W | 2.95

Variants of: B2
Experiment: as above
Details: c terminus: a fixed tail appended

Row | Variant | protein stability index
143 | F1D | 4.47
144 | F1Q | 4.18
145 | F1V | 3.91
146 | F1Y | 3.61
147 | F1T | 3.5
148 | F1H | 4.06
149 | F1L | 4.03
150 | F1N | 4.33
151 | F1E | 4.36
152 | F1W | 3.26
153 | F1G | 4.37
154 | F1R | 4
155 | F1C | 3.07
156 | F1I | 3.9
157 | F1A | 4.29
158 | F1M | 3.9
159 | F1S | 4.38
160 | F1K | 4.37
161 | Q2K | 3.54
162 | Q2E | 3.98
163 | Q2I | 1.9
164 | Q2F | 3.18
165 | Q2C | 2.18
166 | Q2G | 3.61
167 | Q2D | 4.03
